Positions count from the first letter of the chain named.
B1: V199: HRG-β1 variant with V199 mutated to alanine (protein)
chain: SHLVKCAEKEKTFCVNGGECFMAKDLSNPSRYLCKCPNEFTGDRCQNYVMASFYKHLGIEFMEAEELY
modifications: left off: large carriers; small tags and cut ends
notes: HRG-β1 variant with V199 mutated to alanine
B2: F229: HRG-β1 variant with F229 mutated to alanine (protein)
chain: B1 chain with A23V, F53A
modifications: left off: large carriers; small tags and cut ends
notes: HRG-β1 variant with F229 mutated to alanine
B3: K200: HRG-β1 variant with K200 mutated to alanine (protein)
chain: B1 chain with A23V, K24A
modifications: left off: large carriers; small tags and cut ends
notes: HRG-β1 variant with K200 mutated to alanine
B4: P205: HRG-β1 variant with P205 mutated to alanine (protein)
chain: B1 chain with A23V, P29A
modifications: left off: large carriers; small tags and cut ends
notes: HRG-β1 variant with P205 mutated to alanine
B5: E215: HRG-β1 variant with E215 mutated to alanine (protein)
chain: B1 chain with A23V, E39A
modifications: left off: large carriers; small tags and cut ends
notes: HRG-β1 variant with E215 mutated to alanine
B6: S177: HRG-β1 variant with S177 mutated to alanine (protein)
chain: B1 chain with S1A, A23V
modifications: left off: large carriers
notes: HRG-β1 variant with S177 mutated to alanine
B7: V191: HRG-β1 variant with V191 mutated to alanine (protein, UniProt Q02297 1-640, looked up, variant V191A)
chain: MSERKEGRGKGKGKKKERGSGKKPESAAGSQSPALPPRLKEMKSQESAAGSKLVLRCETSSEYSSLRFKWFKNGNELNRKNKPQNIKIQKKPGKSELRINKASLADSGEYMCKVISKLGNDSASANITIVESNEIITGMPASTEGAYVSSESPIRISVSTEGANTSSSTSTSTTGTSHLVKCAEKEKTFCANGGECFMVKDLSNPSRYLCKCQPGFTGARCTENVPMKVQNQEKAEELYQKRVLTITGICIALLVVGIMCVVAYCKTKKQRKKLHDRLRQSLRSERNNMMNIANGPHHPNPPPENVQLVNQYVSKNVISSEHIVEREAETSFSTSHYTSTAHHSTTVTQTPSHSWSNGHTESILSESHSVIVMSSVENSRHSSPTGGPRGRLNGTGGPRECNSFLRHARETPDSYRDSPHSERYVSAMTTPARMSPVDFHTPSSPKSPPSEMSPPVSSMTVSMPSMAVSPFMEEERPLLLVTPPRLREKKFDHHPQQFSSFHHNPAHDSNSLPASPLRIVEDEEYETTQEYEPAQEPVKKLANSRRAKRTKPNGHIANRLEVDSNTSSQSSNSESETEDERVGEDTPFLGIQNPLAASLEATPAFRLADSRTNPAGRFSTQEEIQARLSSVIANQDPIAV
B8: L209: HRG-β1 variant with L209 mutated to alanine (protein, UniProt Q02297 1-640, looked up, variant L209A)
chain: B7 chain with A191V, L209A
B9: D201: HRG-β1 variant with D201 mutated to alanine (protein, UniProt Q02297 1-640, looked up, variant D201A)
chain: B7 chain with A191V, D201A
B10: E184: HRG-β1 variant with E184 mutated to alanine (protein, UniProt Q02297 1-640, looked up, variant E184A)
chain: B7 chain with E184A, A191V
B11: N204: HRG-β1 variant with N204 mutated to alanine (protein, UniProt Q02297 1-640, looked up, variant N204A)
chain: B7 chain with A191V, N204A

Tested on: ErbB-3 or ErbB-4 receptors
Assay: Alanine scan of the HRG-β1 EGF-like domain by phage ELISA (FIG. 2)
Assay type: binding
Settings: ratio of variant EC50 to wild-type EC50
Procedure: The X axis lists each amino acid that was changed to alanine and its position. […] The EC50 was calculated as the concentration of soluble receptor fusion required to displace 50% of the total amount of phage bound to immobilized receptor fusion. ErbB-3 binding results are shown with black bars, and ErbB-4 binding results are shown with white bars.
Alanine-substituted variants were generated by site-directed mutagenesis according to Kunkel et al., Methods Enzymol. 154:367-82 (1987) (hereinafter “Kunkel mutagenesis”), using uracil-containing single-stranded DNA template prepared from pHRG2-g3. pHRG2-g3, which is described in Example 1, expressed HRG-β1 177-244 fused to pIII 247. A series of oligonucleotides was used to generate a series of constructs that expressed a series of variants in which consecutive residues were mutated to alanine. Phage stocks were prepared from these constructs as described in Example 1, except that PEG(8000) was used to precipitate the phage. The affinities of the alanine-substituted variants for ErbB-3-Ig and ErbB-4-Ig was determined by phage ELISA as described in Example 1.

Row | Molecule | effect of substitution with alanine on affinity for the ErbB-3 or ErbB-4 receptors
1 | B1 | two
2 | B2 | two and five
3 | B3 | two
4 | B4 | two
5 | B5 | two
6 | B6 | two and five
7 | B7 | two and five
8 | B8 | two and five
9 | B9 | two
10 | B10 | two
11 | B11 | two

Source: patent US7563583B2, “Heregulin variants” (Genentech, Inc., priority 1997, dated 2009)
